For this experiment, the target named is glutathione S-transferase (GST). Description: cross-linking; GST crosslinked in a crosslinker titration with UCCL or DSSO, two molar ratios of each reagent; crosslinked dimer seen (Figure 2c).

The stoichiometry N is the number of molecules, sites or subunits per partner or assembly. As for “glutathione S-transferase (GST) (enzyme)”, the stoichiometry N was 2.

The values are drawn from paper PMC10466327.
